{
  "source": "the nanobody polyreactivity screen of Harvey et al. (2022)",
  "data": [
    {"assay": "yeast display, Sf9 membrane polyspecificity reagent, FACS + sequencing; frameworks hold sequencing errors", "how_it_was_run": "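After 36–48 hours of galactose induction, yeast (Saccharomyces cerevisiae BJ5465) displaying a synthetic nanobody library were stained at 4 °C for 1 hour with 10% biotinylated, detergent-solubilized Sf9 membrane reagent. Streptavidin microbeads enriched the stained cells before FACS sorting into low and high (top ~1%) gates on anti-HA and streptavidin fluorescence. Each clone's polyreactivity label reflects its gate of origin.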", "values": [
      {"sequence": "QVQLVESGGGLVQAGGSLRLSCAASGFTFALYAMGWYRQAPGKERELVAAITSGGSTNYADSVKGRFTISRDNAKNTVYLLMNSLKPEDTAVYYCAAVPYYRYYSLKGRNNYNYWGQGTQVTVSS", "polyreactivity (PSR sort gate)": "high polyreactivity"},
      {"sequence": "QVQLVESGGGLVQAGGSLRLSCAASGFTFANNAMGWYRQAPGKERELVAAITRGDSTYYAESVKGRFTISRDNAKNTVYLQMNSRKPEDTAVYYCAKEWYFPIYDYWGQGTQVTVSS", "polyreactivity (PSR sort gate)": "low polyreactivity"},
      {"sequence": "QVQLVESGGGLVQAGGSLRLSCAASGFTFAPNAMGWYRQAPGKEMELVAAISSASSTYYADSVKGRFTISRDNAKNTVYLQMNSLKPEDTAVYYCAARVFKKYRPSGRYYYWGQGSQVTVSS", "polyreactivity (PSR sort gate)": "high polyreactivity"},
      {"sequence": "QVQLVESGGGLVQAGGSLRLSCAASGFTFARNTMGWYRQAPGKEREFVAVITNRGGSTYYADSVKGRFTISRDNAKNTVYLQMNSLKPEDTAVYYCAARKKHSGYGRGNYWGQGTQVTVSS", "polyreactivity (PSR sort gate)": "high polyreactivity"},
      {"sequence": "QVQLVESGGGLVQAGGSLRLSCAASGFTFARYVMGWYRQAPGKERELVAAISWRGTRTFYADSVKGRFTISRDNAKNTVYLQMNSLKPEDTAVYYCAADSRPPKYDYWGQGTQVTVSS", "polyreactivity (PSR sort gate)": "high polyreactivity"},
      {"sequence": "QVQLVESGGGLVQAGGSLRLSCAASGFTFASNAMGWYRQAPGKERELVAGISRTGTTTYYADSVKGRFTISRDNAKNTVYLQMNSLKPEDTAVYYCAKGSNSYLRYHYTYPYDYWGQGTQVTVSS", "polyreactivity (PSR sort gate)": "high polyreactivity"},
      {"sequence": "QVQLVESGGGLVQAGGSLRLSCAASGFTFASNDMGWYRQAPGKERELVASITKGGGRTYYADSVKGRFTISRDNAKNTVYLQMNSLKPEDTAVFYCAARQLIKYDYWGQGTQVTVSS", "polyreactivity (PSR sort gate)": "low polyreactivity"},
      {"sequence": "QVQLVESGGGLVQAGGSLRLSCAASGFTFASNGRGGYRQAPGKERELVAVIDWSDDSTYYADSVKGRFTISRDNAKNTVYLQMNSLKPEDTAVYYCNADDWWGGYDYWGQGTQVTVSS", "polyreactivity (PSR sort gate)": "low polyreactivity"},
      {"sequence": "QVQLVESGGGLVQAGGSLRLSCAASGFTFATYDMGLYRQAPGKERELVAAISRSGGRTYYADSVKVLFTISRDYAKNTVYLQMNSLKPEDTAVYYCAKYVPGYPYDYWGQGTQVTVSS", "polyreactivity (PSR sort gate)": "high polyreactivity"},
      {"sequence": "QVQLVESGGGLVQAGGSLRLSCAASGFTFAVNAMGWYRQAPGKERELVAAISWSGVSTYYADSVKRRFTISRDNAKNTVYLQMNSLKPEDTAVYYCARRRTKSYTRKYDYWGQGTQVTVSS", "polyreactivity (PSR sort gate)": "low polyreactivity"},
      {"sequence": "QVQLVESGGGLVQAGGSLRLSCAASGFTFAVYAMGWYRQAPGKERELVAAIDSSDGSTSYADSVKGRFTISRDNAKNTVYLQMNSLKPEDTAVYYCAGDQYWWFYEYEYWGQGTQVTVSS", "polyreactivity (PSR sort gate)": "low polyreactivity"},
      {"sequence": "QVQLVESGGGLVQAGGSLRLSCAASGFTFAVYAMGWYRQAPGKERELVAAINRGGGSTYYADSVKGRFTISRDNAKNTVYLQMNSLKPEDTAVYYCNKRYRVWFDYWGQGTQVTLSS", "polyreactivity (PSR sort gate)": "high polyreactivity"},
      {"sequence": "QVQLVESGGGLVQAGGSLRLSCAASGFTFAVYVMGWYRQAPGKERELVATISFSVGSTYYADSVKGRFTISRDNAKNTVYLQMNSLKPEDTAVYYCNADPPPEYYPDKDNYWGQGTQVTVSS", "polyreactivity (PSR sort gate)": "low polyreactivity"},
      {"sequence": "QVQLVESGGGLVQAGGSLRLSCAASGFTFAWYAMGWYRQAPGKERELVAAITSSGGSTYYADSVKGRFTISRDNAKNTVYLQMNSLKPEDTAVYYCAARPWIWARAGYYWGQGTQVTVSS", "polyreactivity (PSR sort gate)": "high polyreactivity"},
      {"sequence": "QVQLVESGGGLVQAGGSLRLSCAASGFTFAYYAMGWYRPAPGKERELVAAITSGGRTNYADSVKGRFTISRDNAKNTVYLQMNSMKPEDTAVYYFAKGYRRVYGPLYYWGQGTQVTVSS", "polyreactivity (PSR sort gate)": "low polyreactivity"},
      {"sequence": "QVQLVESGGGLVQAGGSLRLSCAASGFTFAYYAMGWYRQAAGKERELVAAITVSGASTYYADSVKGRFTISRDNAKNTDYLQMNRLKPEETAVYYCARYYAIVSGYYDDGYWGQGTQVTVSS", "polyreactivity (PSR sort gate)": "high polyreactivity"},
      {"sequence": "QVQLVESGGGLVQAGGSLRLSCAASGFTFAYYAMGWYRQAPGKERELVAAISSRGGSTYADSVKGRFTISRDNAKNTVYLQMNSLKPEDTAVYYCNAVVPRSRYFSWTYDYWGQGTQVTVSS", "polyreactivity (PSR sort gate)": "high polyreactivity"},
      {"sequence": "QVQLVESGGGLVQAGGSLRLSCAASGFTFAYYAMGWYRQAPGKERELVAAISYSGGSTYYADSVKGRFTISRDNAKNTVYLQMNSLKPEDTAVYYCAAEAGRRYNWGYDYWGQGTQVTVSS", "polyreactivity (PSR sort gate)": "high polyreactivity"},
      {"sequence": "QVQLVESGGGLVQAGGSLRLSCAASGFTFAYYAMGWYRQAPGKERELVAAITRGGGRTFYADSVKGRFTISRDNAKNTVYLQMNSLKPEDTAVYYCAREVYRHYAPVGYDYWGQGTQVTVSS", "polyreactivity (PSR sort gate)": "high polyreactivity"},
      {"sequence": "QVQLVESGGGLVQAGGSLRLSCAASGFTFAYYTMGWYRQAPGKERELVAAINWSGGSTYYADSVKGRFTISRDNAKNTVYLQMNSLKPEDTAVYYSAPTCPYYNSRQGHQYDYWGQGTQVTVSS", "polyreactivity (PSR sort gate)": "high polyreactivity"},
      {"sequence": "QVQLVESGGGLVQAGGSLRLSCAASGFTFCSNAMGWYRQAPGKERELVAAITWSGGRTYYADSVKGRFTISRDNAKNTVYLQMNSLKPEDTAVYYCNAYRNWWWSQYDYWGQGTQVTVSS", "polyreactivity (PSR sort gate)": "high polyreactivity"},
      {"sequence": "QVQLVESGGGLVQAGGSLRLSCAASGFTFDENAMGWSRQAPGINYSRASTYYADSVKGRFTISRDNAKNTVYLQMISLKPEDTAVYYCNKASYWGSGFDYWGQGTQVTVSS", "polyreactivity (PSR sort gate)": "low polyreactivity"},
      {"sequence": "QVQLVESGGGLVQAGGSLRLSCAASGFTFDEYAMGWYRQAPGKEREFVATISSSGGSTYYADSVKGRFTISRDNAKNTVYLQMNSLKPEDTAVYYCAADVRRLYTSGVDYWWHSEYDYWGQGTQVTLSS", "polyreactivity (PSR sort gate)": "low polyreactivity"},
      {"sequence": "QVQLVESGGGLVQAGGSLRLSCAASGFTFDFYAMGWYRQAPGKERELVAAINWSGSSTYYADSVKGRFTISRDTAKNTVYLQMNSLKPEDTAVYYCAAQVYYTLFPDVYTMYYWGQGTQVTVSS", "polyreactivity (PSR sort gate)": "high polyreactivity"},
      {"sequence": "QVQLVESGGGLVQAGGSLRLSCAASGFTFDFYAMGWYRQAPGKERELVAAISKNDGTTYYADSVKGRFTISRDNAKNTVYLQMYSLKPVDTAVYYCAAESGYPVYTYVSSGDYWGQGTQVTVSS", "polyreactivity (PSR sort gate)": "low polyreactivity"},
      {"sequence": "QVQLVESGGGLVQAGGSLRLSCAASGFTFDGYAMGWYRQAPGKERELVAAISQSGGSTYYADSVKGRVTISRDNAKNTVYLQMNSLKPEDTAVYYCNAYTGYRIRYDYWGQGTQVTVSS", "polyreactivity (PSR sort gate)": "high polyreactivity"},
      {"sequence": "QVQLVESGGGLVQAGGSLRLSCAASGFTFDGYAMGWYRQAPGKERELVAAITRRGGRTYYADSVKGRFTISRDNAKNTVYLQMNSLKPEDTAVYFCAAERYGDRFYGAYDYWGQGTQVTVSS", "polyreactivity (PSR sort gate)": "high polyreactivity"},
      {"sequence": "QVQLVESGGGLVQAGGSLRLSCAASGFTFDINTMGWYRQAPGKERELVAAITYSGGSTYYADSVKGRFTISRDNAKNTVYLQMNSLKPEDTAVYYCATTWYFVASWYVAIYDYWGQGTQVTVSS", "polyreactivity (PSR sort gate)": "low polyreactivity"},
      {"sequence": "QVQLVESGGGLVQAGGSLRLSCAASGFTFDIYAMGWYRQAPGKERELVATISFTGDTTSYADSVKGRFTISRHNAKNTVYLQMNSLKPEDTAVYYCAADGSYPLSVGRENLHYAEFDYWGQGTQVTVSS", "polyreactivity (PSR sort gate)": "low polyreactivity"},
      {"sequence": "QVQLVESGGGLVQAGGSLRLSCAASGFTFDIYAMGWYRQAPGTERELVATISFTGDTTSYADSVKGRFTISRDNAKTTVYLQMNSLKPEDTAVYYCAADGSYPLSVGRENLHYAEFDYWGQGTQVTVSS", "polyreactivity (PSR sort gate)": "low polyreactivity"},
      {"sequence": "QVQLVESGGGLVQAGGSLRLSCAASGFTFDKYGMGWYRQAPGKERELVAAISSGGSTNYADSVKGRFTISRDNAKNTVYLQMNSLKPEDSAVYYCAARYYRYGRFRAYSWWTYGYWGQGTQVTVSS", "polyreactivity (PSR sort gate)": "high polyreactivity"},
      {"sequence": "QVQLVESGGGLVQAGGSLRLSCAASGFTFDNYGMGWYRQAPGKERDLVAAISTSGGSTYYADSVKGRFTISRDNEKNTVYFQMNSLKPEDTADYYCNVDFYEYSSVSYDYWGQGTQVTVSS", "polyreactivity (PSR sort gate)": "high polyreactivity"},
      {"sequence": "QVQLVESGGGLVQAGGSLRLSCAASGFTFDQYTMGWYRQAPGKERELVAAISSSGGSTYYADSVKGRFTISRDNAKNTVYLQMNSLKPEDTAVFYCAARFLLTQRFSHDYWGQGTQVTVSS", "polyreactivity (PSR sort gate)": "low polyreactivity"},
      {"sequence": "QVQLVESGGGLVQAGGSLRLSCAASGFTFDSNGMGWYRQAPGKERELVAAISTGGSTYYADSVKGRFTISRDNAKTTVYIPMNSLKPEDTPVYYCARDTPYPDTWYGYWGQGTQVTVSS", "polyreactivity (PSR sort gate)": "low polyreactivity"},
      {"sequence": "QVQLVESGGGLVQAGGSLRLSCAASGFTFDTYAMGWYRQAPGKERELVAAISWSGGSTYYADSVKGRFTISRDNAKNTVYLQMNSLKPEDTAVYYCAAETPVDWWSTSYNYWGQGTQVTVSS", "polyreactivity (PSR sort gate)": "high polyreactivity"},
      {"sequence": "QVQLVESGGGLVQAGGSLRLSCAASGFTFDTYGMGWYRQAPGKERELVAAITGDGDSTYYADSVKGRFTISRDNAKNTVYLQMNSLKPEDTAVYYCATDQDVVGYWTIYYYAWGYEYCGQGTQVTVSS", "polyreactivity (PSR sort gate)": "low polyreactivity"},
      {"sequence": "QVQLVESGGGLVQAGGSLRLSCAASGFTFDVYAKGLYRQAPGKERELVAAISIGANTYYADSVKGRFTISRDNAKSTVYLQMNSLKPEDTAVYYCAKRAYAPQYGYWGQGTQVTVSS", "polyreactivity (PSR sort gate)": "low polyreactivity"},
      {"sequence": "QVQLVESGGGLVQAGGSLRLSCAASGFTFDWYAMGWYRPAPGTERELVAAISTRGTSTYYADSVKGRFTISRDNAKNTVYLQMNSLKPEDTAVYYCAKRSYHGGDYWGQGTQVTVSS", "polyreactivity (PSR sort gate)": "high polyreactivity"},
      {"sequence": "QVQLVESGGGLVQAGGSLRLSCAASGFTFDYNAMGWYRQAPGKERELVAAISNTGDSTYYADSVKGRFTISRDNAKNTVYLQMNSLKPEDTAVYYCAATSVPRYYYWGQGTQVTVSS", "polyreactivity (PSR sort gate)": "low polyreactivity"},
      {"sequence": "QVQLVESGGGLVQAGGSLRLSCAASGFTFDYYAMGWYRQAPGKERELVAAISKRGGSTYYADSVKGRFTISRDNAKNTVYLQMNSLKPEDTAVYYCAAASYSSPRTSSGNYWGQGTQVYVSS", "polyreactivity (PSR sort gate)": "high polyreactivity"}
    ]}
  ]
}
